Measured values from patent publication US20170369523A1, “TEMPLATE-FIXED BETA-HAIRPIN PEPTIDOMIMETICS THAT ARE LIGANDS FOR G-PROTEIN-COUPLED RECEPTORS (GPCRS) AND ARE MODULATORS OF TRANSCRIPTION FACTORS AND COACTIVATORS” (POLYPHOR AG, priority 2008, published 2017).
Numbered stars: 1 amine (or outer) side, 2 acyl side, 3 side chain; on linkers, the order of the positions; unused ones are H or OH. Square brackets hold non-standard residues; d marks the D form. Pro(4S-SH) = O=C([C@@H]1C[C@H](S[*:3])CN1[*:1])[*:2]; Trp(6-Cl) = N[C@@H](Cc1c[nH]c2cc(Cl)ccc12)C(=O)O; Oic = O=C(O)[C@@H]1C[C@@H]2CCCC[C@@H]2N1; Gly(octyl) = CCCCCCCC[C@H](N)C(=O)O; Cha = N[C@@H](CC1CCCCC1)C(=O)O

T1: NCoA-1 (UniProt Q15788 257-385, limits assumed)
T1 construct: also called SRC-1
T1 sequence (looked up): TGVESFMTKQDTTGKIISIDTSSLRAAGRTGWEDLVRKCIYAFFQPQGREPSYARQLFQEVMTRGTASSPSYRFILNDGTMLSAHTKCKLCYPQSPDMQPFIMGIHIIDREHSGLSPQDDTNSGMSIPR

B1: Ex. 3 (peptide)
peptide: cyclo(FEWLAWEW[dP][Oic])
SMILES: CC(C)C[C@@H]1NC(=O)[C@H](Cc2c[nH]c3ccccc23)NC(=O)[C@H](CCC(=O)O)NC(=O)[C@H](Cc2ccccc2)NC(=O)[C@@H]2C[C@@H]3CCCC[C@@H]3N2C(=O)[C@H]2CCCN2C(=O)[C@H](Cc2c[nH]c3ccccc23)NC(=O)[C@H](CCC(=O)O)NC(=O)[C@H](Cc2c[nH]c3ccccc23)NC(=O)[C@H](C)NC1=O
notes: cyclo(-P1..P8-template-)
B2: Ex. 26 (peptide)
peptide: cyclo([Cha]EWLAWE[Cha][dP]P)
SMILES: CC(C)C[C@@H]1NC(=O)[C@H](Cc2c[nH]c3ccccc23)NC(=O)[C@H](CCC(=O)O)NC(=O)[C@H](CC2CCCCC2)NC(=O)[C@@H]2CCCN2C(=O)[C@H]2CCCN2C(=O)[C@H](CC2CCCCC2)NC(=O)[C@H](CCC(=O)O)NC(=O)[C@H](Cc2c[nH]c3ccccc23)NC(=O)[C@H](C)NC1=O
notes: cyclo(-P1..P8-template-)
B3: Ex. 6 (peptide)
peptide: cyclo(FE[Trp(6-Cl)]LA[Gly(octyl)]EF[dP]P)
SMILES: CCCCCCCC[C@@H]1NC(=O)[C@H](C)NC(=O)[C@H](CC(C)C)NC(=O)[C@H](Cc2c[nH]c3cc(Cl)ccc23)NC(=O)[C@H](CCC(=O)O)NC(=O)[C@H](Cc2ccccc2)NC(=O)[C@@H]2CCCN2C(=O)[C@H]2CCCN2C(=O)[C@H](Cc2ccccc2)NC(=O)[C@H](CCC(=O)O)NC1=O
notes: cyclo(-P1..P8-template-)
B4: Ex. 4 (peptide)
peptide: cyclo(FEWL[dA]WEF[dP]P)
SMILES: CC(C)C[C@@H]1NC(=O)[C@H](Cc2c[nH]c3ccccc23)NC(=O)[C@H](CCC(=O)O)NC(=O)[C@H](Cc2ccccc2)NC(=O)[C@@H]2CCCN2C(=O)[C@H]2CCCN2C(=O)[C@H](Cc2ccccc2)NC(=O)[C@H](CCC(=O)O)NC(=O)[C@H](Cc2c[nH]c3ccccc23)NC(=O)[C@@H](C)NC1=O
notes: cyclo(-P1..P8-template-)
B5: Ex. 25 (peptide)
peptide: cyclo([Cha]EWLAWEF[dP]P)
SMILES: CC(C)C[C@@H]1NC(=O)[C@H](Cc2c[nH]c3ccccc23)NC(=O)[C@H](CCC(=O)O)NC(=O)[C@H](CC2CCCCC2)NC(=O)[C@@H]2CCCN2C(=O)[C@H]2CCCN2C(=O)[C@H](Cc2ccccc2)NC(=O)[C@H](CCC(=O)O)NC(=O)[C@H](Cc2c[nH]c3ccccc23)NC(=O)[C@H](C)NC1=O
notes: cyclo(-P1..P8-template-)
B6: Ex. 1 (peptide)
peptide: cyclo(FE[Trp(6-Cl)]LAWEF[dP]P)
SMILES: CC(C)C[C@@H]1NC(=O)[C@H](Cc2c[nH]c3cc(Cl)ccc23)NC(=O)[C@H](CCC(=O)O)NC(=O)[C@H](Cc2ccccc2)NC(=O)[C@@H]2CCCN2C(=O)[C@H]2CCCN2C(=O)[C@H](Cc2ccccc2)NC(=O)[C@H](CCC(=O)O)NC(=O)[C@H](Cc2c[nH]c3ccccc23)NC(=O)[C@H](C)NC1=O
notes: cyclo(-P1..P8-template-)
B7: Ex. 5 (peptide)
peptide: cyclo(FT[Trp(6-Cl)]LAWEF[dP][Pro(4S-SH)])
SMILES: CC(C)C[C@@H]1NC(=O)[C@H](Cc2c[nH]c3cc(Cl)ccc23)NC(=O)[C@H]([C@@H](C)O)NC(=O)[C@H](Cc2ccccc2)NC(=O)[C@@H]2C[C@H](S)CN2C(=O)[C@H]2CCCN2C(=O)[C@H](Cc2ccccc2)NC(=O)[C@H](CCC(=O)O)NC(=O)[C@H](Cc2c[nH]c3ccccc23)NC(=O)[C@H](C)NC1=O
notes: cyclo(-P1..P8-template-)

Molecular target: T1, NCoA-1
Assay: competition fluorescence polarization; displacement of FluoSTAT6 from NCoA-1
Method: The mixtures were shaken thoroughly. Fluorescence polarization was measured on a SPECTRAmax M5 spectrometer (Molecular device) following 5-30 min incubation at room temperature. FluoSTAT6 was excited at 490 nm and emission polarization was detected at 525 nm. 40 intensity measurements were collected for each well, 20 at horizontal position of the dynamic polarizer, 20 at parallel position. As the fraction of FluoSTAT6 bound to NCoA-1 is correlated to the fluorescence polarization (FP), after normalization, the fraction of bound FluoSTAT6 (B) was determined, and the KD was calculated according to B=[(1+P/R+KD/R)−((1+P/R+KD/R)²−4P/R)^{0.5}]/2, wherein P is the total probe concentration, R the total protein concentration and KD the dissociation constant (M. H. Roehrl, J. Y. Wang, G. Wagner, Biochemistry 2004, 3, 16056).
To determine the Kᵢ values of potential inhibitors of the STAT6/NCoA-1 interaction (competition fluorescence polarization) the compounds (dilution series from 0 to 100 μM final concentration) dissolved in HEPES buffer (10 mM HEPES, 150 mM NaCl, 3.4 mM EDTA, 0.1% BSA) were dispensed in a black 96 well plate (Greiner) and FluoSTAT6 (200 nM final concentration) in HEPES buffer was added. The mixture was completed by a HEPES buffer solution of NCoA-1 (1 μM final concentration) and processed as described above. STAT6Y (C-terminal tyrosine extended STAT6 794-814 peptide) was used as a positive control. As the total fluorescence intensity of FluoSTAT6 remains similar for all samples, the fraction of peptide bound to NCoA-1 is correlated to the fluorescence polarization.
Following normalization data were fitted with IGORpro Software® (WaveMetrics, Lake Oswego, Oreg., USA) to a sigmoid equation to determine IC₅₀ values.

Ki | Binder
6.2 µM | B1
7.7 µM | B2
3.6 µM | B3
15 µM | B4
6 µM | B5
0.7 µM | B6
3.8 µM | B7
